Assay: yeast display, Sf9 membrane polyspecificity reagent, FACS + sequencing; frameworks hold sequencing errors
Summary of the method: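 After 36–48 hours of galactose induction, yeast (Saccharomyces cerevisiae BJ5465) displaying a synthetic nanobody library were stained at 4 °C for 1 hour with 10% biotinylated, detergent-solubilized Sf9 membrane reagent. Streptavidin microbeads enriched the stained cells before FACS sorting into low and high (top ~1%) gates on anti-HA and streptavidin fluorescence. Each clone's polyreactivity label reflects its gate of origin.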

Sequence	polyreactivity (PSR sort gate)
QVQLVESGGGLVQAGGSLRLSCAASGRIFYFNTMGWYRQAPGKERELVAAISRSGTSTYYADSVKGRFTISRDNAKNTVYLQMNSLKPEDTAVYYCAAVKSYYKLDYWGQGTQVTVSS	high polyreactivity
QVQLVESGGGLVQAGGSLRLSCAASGRIFYFYAMGWYRQAPGKERELVAAISTSGGSTYYADSVKGRFTISRDNAKITVYLQMNSLKPEDTAVYYCAARFRYYGSEYDYWGQGTQVTVSS	low polyreactivity
QVQLVESGGGLVQAGGSLRLSCAASGRIFYFYAMGWYRQAPGKEREMVASISYSGGNTYYADSVKGRFTISRDNAKNTVYLQMNSLKPEDTAVYYCNVLPNTGARGYYYWGQGTQVTVSS	low polyreactivity
QVQLVESGGGLVQAGGSLRLSCAASGRIFYFYAMVWYRQAPGKERELVAAISTSGGSTYYADSVKGRFTISRDNAKNTVYLQMNSLKPEDTAVYYCAARFRYYGSEYDYWGQGTQVTVSS	low polyreactivity
QVQLVESGGGLVQAGGSLRLSCAASGRIFYGNALGWYRHAPGKERELVATISSSGGRTTYADSVKGRFTISRDNAKNTVYLPMNSLKPEDTAVYYCAAQGYWTGYDYWGQGTQVTVSS	high polyreactivity
QVQLVESGGGLVQAGGSLRLSCAASGRIFYGNAMGWYRQAPGKERELVAAITRSGSSTYYADSVKGRFTISRDNAKNTVYLQMNSLKPEVTAVYYCAVKYFDYVGQYAYYYWGQGTQVTVSS	high polyreactivity
QVQLVESGGGLVQAGGSLRLSCAASGRIFYGNTMGWYRQAPGKERELVAAITIGDSTNYADSVKGRFTISRDNAKNTVYLQMNSLKPEDTEVYFCAKRNWWGYYKYDYWGQGTQVTVSS	low polyreactivity
QVQLVESGGGLVQAGGSLRLSCAASGRIFYGYAMGWYRQAPGKERELVAAISKSGTRTYYADSVKGRFTISRDNAKNTVYLQMNSLKPEDTAVFYCNARGYPYDTYNEYYYWGQGTQVTVSS	high polyreactivity
QVQLVESGGGLVQAGGSLRLSCAASGRIFYGYAMGWYRQAPGKERELVAAISWRGGRTYYADSVKGRFTISRDNAKNTVYLQMNSLKPEDTAVYYCNKDFPPQGQLRNMYYWGQGTQVTVSS	high polyreactivity
QVQLVESGGGLVQAGGSLRLSCAASGRIFYGYAMGWYRQAPGKERELVAGISYRGARTYYADSVKGRFTISRDNAKNTVYLQMNSLKPEDTAVYYCNAVPYYPFAFGALDYWGQGTQVTVSS	high polyreactivity
QVQLVESGGGLVQAGGSLRLSCAASGRIFYGYTMGWYREAPGIERELVASITIRGSRTYYADSVKGRFTISRDNAKNTVYLQMTSLKPEDTAVYYCAADFVPARTVHRYDYWGQGTQVTVSS	low polyreactivity
QVQLVESGGGLVQAGGSLRLSCAASGRIFYGYTMGWYRQAPGKERELVAAITQRGGNTHYADSVKGRFTISRDNGKNTVYLHMNRLKPEDTAVYYCAAKYYPYVRGVQYYYWGQGTQVTVSS	high polyreactivity
QVQLVESGGGLVQAGGSLRLSCAASGRIFYINAMGWYRQAPGKEMELVAAITGSVGSTYYADSVKGRFTISRDNAKNTVYLLMNSQKPEDTAVYYCAASDQPYNGGDGDYWGQGTQVTVSS	low polyreactivity
QVQLVESGGGLVQAGGSLRLSCAASGRIFYINDMGCYRQAPGKEREFVASITGSGGRTYYADSVKGRFTISRDNAKNTVYLQMNSLKPEDTAVYYCNADLYVGYLYYLYDYWGQVTQVTVSS	low polyreactivity
QVQLVESGGGLVQAGGSLRLSCAASGRIFYKNAMGWYRQAPGKERELVATITYSDGTTYYADSVKGRFTISRDNAKNTVYLQMNSLKPEDTAVYYCAAQTDSVESDYWGQGTQVTVSS	low polyreactivity
QVQLVESGGGLVQAGGSLRLSCAASGRIFYKYAMGWYRQAPGKERELVAAISTGGTRTYYADSVKGRFTISRDNAKNTVYLQMNSLKPEDTAVYYCAARGGDKTYYYWGQGTQVTVSS	high polyreactivity

Sequence	polyreactivity (PSR sort gate)
QVQLVESGGGLVQAGGSLRLSCAASGRIFYKYAMGWYRQAPGKERELVAAITTSGGSTYYADSVKGRFTISRDNAKNTVYLQMNSLKPEDTAVYYCARDLNGRFLTTGRGMDYWGQGTQVTVSS	high polyreactivity
QVQLVESGGGLVQAGGSLRLSCAASGRIFYLNVMGWYRQAPGKERELVAAITRRDVTTYADSVKGRFTISRDNAKNTVYLQMKSLKPEDTAFYYCNAVYYNWIGFDYWGQGTQVTVSS	low polyreactivity
QVQLVESGGGLVQAGGSLRLSCAASGRIFYLYAMGWYRQAPGKERELVAAITWSGGSTYYADSVKGRFTISRDNAKNTVYLQMNSLKPEDTAVYYCARDDAYSDFDYDYWGQGTQVTVSS	low polyreactivity
QVQLVESGGGLVQAGGSLRLSCAASGRIFYLYAMGWYRQAPGKERELVARITSGSGTYYADSVKGRFTISRDNAKNTVYLQMNSLKPEDTAVYYCAAREPGVGYVGHYTGLDYWGQGTQVTVSS	low polyreactivity
QVQLVESGGGLVQAGGSLRLSCAASGRIFYLYAMGWYRQAPGKERELVATINTSGGITYYADSVKGRFTISRDNAKNTVYLQMNSLKPEDTAVYYCNADWEWLYFYFRPGGYWGQGTQVTVSS	low polyreactivity
QVQLVESGGGLVQAGGSLRLSCAASGRIFYLYTMGWYRQAPGKEREFSTYYADSVKGRFTISRDNAKNTVYLQMNSLKPEDTAVYYCNKGSDGFTTGEGDYWGQGTQVTVSS	low polyreactivity
QVQLVESGGGLVQAGGSLRLSCAASGRIFYLYTMGWYRQAPGKERELVAASTRAGRTYYADSVKGRFTISRDNAKNTVYLQMNSLKPEDTAVYYCAAAFLSRVQGYDSWGQGTQVTVSS	high polyreactivity
QVQLVESGGGLVQAGGSLRLSCAASGRIFYNNAMGWYRQAPGKERELVAAIDWPGGSTDYADSVKGRFTISRDNAKNTVYLQMNSLKPEDTAVYYCVAGHVPYWHGNSYDYWGQGTQVTVSS	low polyreactivity
QVQLVESGGGLVQAGGSLRLSCAASGRIFYNNAMGWYRQAPGKERELVASITRNGGRTYYADSVKGRFTISRDNAKNTVYLKMNSLKREDTAVYYCAIDYSRGQIRAGAYEYWGQGTQVTVSS	high polyreactivity
QVQLVESGGGLVQAGGSLRLSCAASGRIFYPNAMGWYRQAPGKERELVASISRGGPTSYADSVKGRFTISRDNAKNTVYLQINSLKPEDTAVYDCAADVAWYRYRSYYWGQGTQVTVSS	high polyreactivity
QVQLVESGGGLVQAGGSLRLSCAASGRIFYPNTMGWYIQAPGKERELVAAISRSGGSTYYTDSVKGRFTISRDNAKNTVYLQMNSLKPEDTAVYYCATVPYESRYDYWGQGTQVTVSS	high polyreactivity
QVQLVESGGGLVQAGGSLRLSCAASGRIFYPYAMGWSRQAPGKERELVAAISSSAGITYYADSVKGRFTISRDNAKKTVYLQMNSLKPEDTAVYYCAKYPVRNPYGYRYDYWGQGTQVTVSS	high polyreactivity
QVQLVESGGGLVQAGGSLRLSCAASGRIFYPYAMGWYIQAPGKERELVADISIGGSTNYADSVKGRFTISRDNAKNTVYLQMNSLKPEDTAVYYCNAGGGFYGSTVEHDYWGQGTQVTVSS	low polyreactivity
QVQLVESGGGLVQAGGSLRLSCAASGRIFYPYAMGWYRQAPGKERELVAAITWSTGRTYYADSVKGRFTISRDNAKNTVYLQMNSLKPEDTAVYYCAATGTLKRRYGYWGQGTQVTVSS	high polyreactivity
QVQLVESGGGLVQAGGSLRLSCAASGRIFYPYAMGWYRQAPGKERELVGYSRGGSTNYADSVKGRFTISRDNAKNTVYLQMNSLKPEDTAVYYCARDVHRSGYLIFDYWGQGTQVTVSS	low polyreactivity
QVQLVESGGGLVQAGGSLRLSCAASGRIFYPYAMVWYRQAPGKERELVAGISFRDGSRYYADSVKGRFTISRDNAKNTVYLQMNSLKPEDTAFYYSAAVGQTHTTSPLSTKFDYWGQGTQVTVSS	low polyreactivity
